The source of these data is patent publication US20220380438A1 (OXFORD UNIVERSITY INNOVATION, published 2022).

Series [1] concerns the molecule itself. Kind of series: NanoBRET, Nluc and HaloTag fusions co-transfected in HEK293T cells. The method, then: (§1) To investigate the interaction between AR FL protein and AR2 protein, NanoBRET assay was performed (Promega NanoBRET™ Protein: Protein Interaction System). Briefly, HEK293T cells were co-transfected with a Nanoluc luciferase (Nluc) fusion plasmid and a HaloTag fusion plasmid with Lipofectamine 2000 reagent. Nluc-MDM2 and p53-HaloTag pair was included as the positive control, and Nluc-MDM2 and HaloTag-SMAD4 pair as negative control. At 24 h after transfection, cells were treated with or without 10 nM DHT. HaloTag NanoBRET 618 ligand or DMSO (no-ligand control) was added. At 24 h, NanoBRET Nano-Glo substrate was added and NanoBRET readings at 460 nm and 618 nm were obtained. Mean corrected NanoBRET ratio in milliBRET unit was calculated using the formula: Mean corrected Nanobret ratio, […]
For orientation: Bioluminescence resonance energy transfer reports proximity on the nanometre scale.

Series [2] deals with T1, human androgen receptor (AR), full length (human, UniProt P10275 1-920).
T1 construct: Full-length AR expressed inside transfected HEK293T cells, not on the cell surface; In the NanoBRET assay it was an N- or C-terminal fusion with Nanoluc luciferase or HaloTag; For co-IP the constructs were with or without an N-terminal FLAG tag; Assays were run with or without 10 nM DHT; also called AR1; AR FL
T1 sequence: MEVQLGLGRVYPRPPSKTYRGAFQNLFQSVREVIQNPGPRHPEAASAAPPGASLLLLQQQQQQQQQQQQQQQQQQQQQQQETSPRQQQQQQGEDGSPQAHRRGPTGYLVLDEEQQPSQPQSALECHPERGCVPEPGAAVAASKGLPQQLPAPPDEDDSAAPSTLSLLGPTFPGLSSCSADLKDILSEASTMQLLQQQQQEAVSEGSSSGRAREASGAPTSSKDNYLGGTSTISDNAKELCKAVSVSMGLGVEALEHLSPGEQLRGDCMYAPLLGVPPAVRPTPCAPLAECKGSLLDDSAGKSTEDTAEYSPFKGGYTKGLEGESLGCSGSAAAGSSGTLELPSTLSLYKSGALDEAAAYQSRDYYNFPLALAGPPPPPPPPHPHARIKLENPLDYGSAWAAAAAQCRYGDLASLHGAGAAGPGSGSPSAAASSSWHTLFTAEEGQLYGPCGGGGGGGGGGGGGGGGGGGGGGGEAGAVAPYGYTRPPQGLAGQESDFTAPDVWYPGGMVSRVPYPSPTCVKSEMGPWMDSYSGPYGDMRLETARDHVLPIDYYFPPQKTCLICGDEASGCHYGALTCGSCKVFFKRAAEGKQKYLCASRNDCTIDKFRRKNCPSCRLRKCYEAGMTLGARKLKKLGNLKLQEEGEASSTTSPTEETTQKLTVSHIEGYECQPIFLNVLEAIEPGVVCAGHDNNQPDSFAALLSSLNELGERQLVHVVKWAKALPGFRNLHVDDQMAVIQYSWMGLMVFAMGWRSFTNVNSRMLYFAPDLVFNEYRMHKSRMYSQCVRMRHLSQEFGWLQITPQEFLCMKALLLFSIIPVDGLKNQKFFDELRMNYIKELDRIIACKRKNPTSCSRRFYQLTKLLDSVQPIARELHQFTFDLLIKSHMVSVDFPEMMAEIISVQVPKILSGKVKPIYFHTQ
The series is described as above. The method, then: as §1

B1: human androgen receptor splice variant 2 (AR2) (receptor)
chain: MILWLHSLETARDHVLPIDYYFPPQKTCLICGDEASGCHYGALTCGSCKVFFKRAAEGKQKYLCASRNDCTIDKFRRKNCPSCRLRKCYEAGMTLGARKLKKLGNLKLQEEGEASSTTSPTEETTQKLTVSHIEGYECQPIFLNVLEAIEPGVVCAGHDNNQPDSFAALLSSLNELGERQLVHVVKWAKALPGFRNLHVDDQMAVIQYSWMGLMVFAMGWRSFTNVNSRMLYFAPDLVFNEYRMHKSRMYSQCVRMRHLSQEFGWLQITPQEFLCMKALLLFSIIPVDGLKNQKFFDELRMNYIKELDRIIACKRKNPTSCSRRFYQLTKLLDSVQPIARELHQFTFDLLIKSHMVSVDFPEMMAEIISVQVPKILSGKVKPIYFHTQ
notes: Whole AR2 expressed inside transfected HEK293T cells; In the NanoBRET assay it was a fusion with Nanoluc luciferase or HaloTag; For co-IP it was with or without an N-terminal FLAG tag (anti-FLAG M2 beads); also called AR45; AR splice variant 2
As for B1, the binding result in series [1] and in series [2] was “binds” throughout.
